Assay results: patent US20230295310A1 (ABCELLERA BIOLOGICS, published 2023)

Columns and labels:
[1] = molecular target: T1, human CD3 expressed on cells (human, UniProt P07766 23-207; P04234 22-171; P09693 23-182); assay: flow cytometry, 25 nM
T1 construct: whole, on cells; CD3 complex on Jurkat cells and on human primary T cells
Procedure, shortened: (§1)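 Values are fold over isotype: median fluorescence intensity of each antibody relative to isotype control after a 30-minute, 4° C incubation at 25 nM with CD3-bearing cells in PBS containing 2% FBS.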

[2] = molecular target: T2, cynomolgus monkey CD3 expressed on primary T cells (cynomolgus monkey, UniProt Q95LI5 22-198; Q95LI8 22-171; Q95LI7 23-181); assay: flow cytometry, 25 nM, cyno primary T cells
T2 construct: whole, on cells; CD3 complex on purified cynomolgus monkey T cells; also called cyno CD3
T2 sequence (Q95LI5 22-198, chain 1 of 3): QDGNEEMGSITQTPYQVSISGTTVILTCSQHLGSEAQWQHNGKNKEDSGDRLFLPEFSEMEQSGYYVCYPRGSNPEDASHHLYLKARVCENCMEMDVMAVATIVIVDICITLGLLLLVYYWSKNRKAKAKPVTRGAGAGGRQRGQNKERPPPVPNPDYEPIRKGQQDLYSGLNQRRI
T2 sequence (Q95LI8 22-171, chain 2 of 3): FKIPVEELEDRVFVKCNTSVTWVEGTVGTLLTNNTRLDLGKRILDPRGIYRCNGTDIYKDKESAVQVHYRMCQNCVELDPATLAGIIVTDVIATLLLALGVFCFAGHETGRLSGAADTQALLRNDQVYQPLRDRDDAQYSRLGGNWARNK
T2 sequence (Q95LI7 23-181, chain 3 of 3): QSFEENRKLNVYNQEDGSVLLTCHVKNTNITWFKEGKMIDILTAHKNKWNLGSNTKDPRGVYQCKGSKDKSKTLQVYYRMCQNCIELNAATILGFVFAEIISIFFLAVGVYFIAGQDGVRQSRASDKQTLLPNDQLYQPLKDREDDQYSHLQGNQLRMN
Procedure, shortened: as §1

[3] = molecular target: T1, human CD3 expressed on cells; assay: flow cytometry, 25 nM, Jurkat cells (human primary T cells in c4 also <10)
Description: Purified antibodies were confirmed to bind CD3 expressed on cells using the CytoFLEX S or LX flow cytometers (Beckman Coulter). Antibodies were diluted to 25 nM in FACS buffer (PBS+2% FBS) and were incubated with CD3-expressing cells for 30 minutes at 4° C. […] The median fluorescence intensity of the binding signal for each antibody was normalized to the isotype control to obtain a fold over isotype value. An antibody with a fold over isotype (FOI) of ≥10 was considered to be positive for binding.

T1 sequence (P07766 23-207, chain 1 of 3): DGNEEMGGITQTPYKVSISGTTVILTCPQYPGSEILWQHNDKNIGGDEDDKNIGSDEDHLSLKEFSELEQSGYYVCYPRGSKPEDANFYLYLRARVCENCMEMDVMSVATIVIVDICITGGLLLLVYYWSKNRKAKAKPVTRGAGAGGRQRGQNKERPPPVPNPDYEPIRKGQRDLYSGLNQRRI
T1 sequence (P04234 22-171, chain 2 of 3): as the sequence (Q95LI8 22-171, chain 2 of 3) above, with V5I, K15N, V20I, T32S, N33D, N34I, A64T, N74S, L83V, R141H counted along it
T1 sequence (P09693 23-182, chain 3 of 3): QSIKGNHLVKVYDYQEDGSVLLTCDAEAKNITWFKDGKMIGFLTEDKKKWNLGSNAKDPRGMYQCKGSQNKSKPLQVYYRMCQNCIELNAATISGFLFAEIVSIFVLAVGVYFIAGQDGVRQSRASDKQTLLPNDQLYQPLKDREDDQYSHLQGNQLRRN

Row | Binder | Human primary T Cell Binding (FOI) [1] [FOI] | binding result [2] | binding result [3]
1 | mAb 87 (antibody, V domains shown) VH: QVQLVQSGAEMKKPGASVKVSCKASGYTFTDYYLHWVRRAPGHGLEWMGWIYPKSGRRNYAQHFQGRVTMTRDTSINTAYMELSSLRSDDSAVYFCVRLEQLVFDYWGQGTLVTVSS VL: not shown | 0.715 | no binding (tested: FOI >=10 = positive) | no binding (tested: FOI >=10 = positive)
2 | mAb 75 (antibody, V domains shown) VH: QVQLVQSGAEVKKPGASVRVSCKASGYTFTGNYIHWVRLAPGQGLEWMGWINPKSGRTQFVQKFQGRVTMTRDTSITTVYMELSRLRSDDTAVYYCARLGDLLNFDYWGQGTLVTVSS VL: not shown | 0.694 | no binding (tested: FOI >=10 = positive) | no binding (tested: FOI >=10 = positive)
3 | mAb 80 (antibody, V domains shown) VH: QVQLVQSGAEVKKPGASVKVSCKASGYTFAGYYLHWVRQAPGQGLEWMGWINPNSGRTESAQKFQGRVTLTRDTSITTAYMALSRLRSDDTAIYYCTRLEQLVFDYWGQGTLVTVSS VL: EIVLTQSPDFQSVTPKEKVTITCRASQSIGSSLHWYQQKPDQSPKLLIKYASQSFSGVPSRFSGSGSGTDFTLTINSLEAEDAATYYCHQSSSLPTFGQGTKVEIK | 0.905 | no binding (tested: FOI >=10 = positive) | no binding (tested: FOI >=10 = positive)
4 | mAb 89 (antibody, V domains shown) VH: QVQLVQSGAEVKKPGASVKVSCKASGYTFAGYYLHWVRQAPGQGLEWMGWINPNSGRTESAQKFQGRVTLTRDTSITTAYMALSRLRSDDTAIYYCTRLEQLVFDYWGQGTLVTVSS VL: DIQMTQSPSSLSASVGDRVTITCRASQGISNYLAWFQQKPGKAPKSLIYAASSLQSGVPSKFSGSGSGTDFTLTISSLQPEDFATYYCQQYNSYPITFGQGTRLEIK | 0.594 | no binding (tested: FOI >=10 = positive) | no binding (tested: FOI >=10 = positive)
5 | mAb 103 (antibody, V domains shown) VH: QVQLVQSGAEVMKPGASVKVSCKASGYTFTDFYIHWVRQAPGQGLEWMGWINPKSGNTRFAQKFQGRVTMTRDTSIATSYMELSRLRSDDTAVFYCARMGDLLALDYWGQGTLVTVSS VL: EIVLTQSPATLSLSPGERATLSCRASQSVSSYLAWYQQKPGQAPRLLIYDASNRATGIPARFSGSGSGTDFTLTISSLEPEDFAVYYCQQRSNWYTFGQGTKLEIK | 0.526 | no binding (tested: FOI >=10 = positive) | no binding (tested: FOI >=10 = positive)
6 | mAb 104 (antibody, V domains shown) VH: QVQLVQSGAEVKKPGASVKVSCKASGYTFTDFYIHWVRQAPGQGLEWMGWINPKSGNTRFAQRFQGRVTMTRDTSITTSYMELSRLRSDDTAVFYCARMGDLLALDYWGQGTLVTVSS VL: not shown | 0.778 | no binding (tested: FOI >=10 = positive) | no binding (tested: FOI >=10 = positive)
7 | mAb 105 (antibody, V domains shown) VH: QVQLQESGPGLVKPSATLSLTCTVSGGSISTYYWSWIRQSPGKGLEWIGYISYSVNTNPSLKSRVTISVDKSKNQLSLNLRSATGADTAVYYCARGGLYGGNAGRFDLWGQGTLVTVSS VL: EIVLTQSPGTLSLSPGERATLSCRASQSVINNYVAWYQQKPGQAPSLIITGVSRRATGIPDRFIGSGSGTDFILIISRLEPEDFAVYCCQQYGNSPWTFGQGTRVEIK | 0.842 | no binding (tested: FOI >=10 = positive) | no binding (tested: FOI >=10 = positive)
8 | mAb 91 (antibody, V domains shown) VH: QVQLVQSGAEVKKPGASVKVSCKASGYTFTGYYIHWVRQAPGQGLEWMGWINPKSGNTVYAQRFQGRVTMTRDTSISTAYMDLSRLKSDDTAVYYCARLEQLVFDYWGQGALVTVSS VL: not shown | 0.746 | no binding (tested: FOI >=10 = positive) | no binding (tested: FOI >=10 = positive)
9 | mAb 76 (antibody, V domains shown) VH: QVHLVQSGAEVKKPGASVKVSCKASGHTFTGFYVHWARQAPGQGLEWMGWIYSNSGRTSYSQKFQGRVAMTRDTSISTIYMDLSRLRSDDTAVYYCARLEQLVFDFWGQGTLVTVSS VL: not shown | 0.921 | no binding (tested: FOI >=10 = positive) | no binding (tested: FOI >=10 = positive)
10 | mAb 82 (antibody, V domains shown) VH: QVHLVQSGAEVKKPGASVKVSCKASGHTFTGYYVHWARQAPGQGLEWMGWIYSNSGRTSYSQKFQGRVAMTRDTSISTIYMDLSRLRSDDTAVYYCARLEQLVFDFWGQGTLVTVSS VL: not shown | 0.954 | no binding (tested: FOI >=10 = positive) | no binding (tested: FOI >=10 = positive)
11 | mAb 84 (antibody, V domains shown) VH: QVHLVQSGAEVKKPGASVKVSCKASGHSFTGYYVHWARQAPGQGLEWMGWIYSNSGRTSYAQKFQGRVTMTRDTSISTTYMELSRLRSDDTAVYYCARLDQLVFDYWGQGTLVTVSS VL: not shown | 0.805 | no binding (tested: FOI >=10 = positive) | no binding (tested: FOI >=10 = positive)
12 | mAb 88 (antibody, V domains shown) VH: QVHLVQSGAEVKKPGASVKVSCKASGHTFTGYYVHWARQAPGQGLEWMGWIYSNSGRTSYSQKFQGRVAMTRDTSINTIYMDLSRLRSDDTAVYYCARLEQLVFDFWGQGTLVTVSS VL: not shown | 0.885 | no binding (tested: FOI >=10 = positive) | no binding (tested: FOI >=10 = positive)

Further lines, results first:

Row | Human primary T Cell Binding (FOI) [1] [FOI] | binding result [2] | binding result [3] | Binder
13 | 0.678 | no binding (tested: FOI >=10 = positive) | no binding (tested: FOI >=10 = positive) | mAb 139 (antibody, V domains shown) VH: QVQLVESGGGVVQPGRSLRLSCAASGFTFSSYAMHWVRQAPGKGLEWVAVIWFDGTNKYYTDSVRGRFTISRDNSKNTLYLQMNSLRAEDTAVYYCATERGITETTRGFDYWGQGTLVTVSS VL: DIQMTQSPSSLSASVGDRVTITCRTSQGIGNDLDWYQQNPGKAPKRLIYATSNLQSGVPSRFSGSGSGTEFTLTISGLQPEDFTTYYCLRHNSYPYTFGQGTKLEIT
14 | 0.821 | no binding (tested: FOI >=10 = positive) | no binding (tested: FOI >=10 = positive) | mAb 135 (antibody, V domains shown) VH: EVQLVESGGGLVKTGGSLRLSCVASGFSFKKAWMNWVRQAPGKGLEWVGRIKRNSDGGTTDYAAPVKGRFTLSRDDSKNTLYLQMNSLKTEDTAVYYCTTLDSSSWYVGYYYMDVWGKGTTVTVSS VL: not shown
15 | 0.835 | no binding (tested: FOI >=10 = positive) | no binding (tested: FOI >=10 = positive) | mAb 124 (antibody, V domains shown) VH: EVQVVESGGDLVQPGGSLRLSCAASGFTFSTYAMTWVRQAPGKGLEWISTISGSGHNTYYADSVKGRFTISRGNSKNTLFLQMNSLRAEDTAVYYCAKENCGGDCLYYMDVWGKGTTVTVSS VL: DIQMTQSPSSLSASVGDRVTITCRASQSISNYLNWYQQKSGKAPKLLIYFASSLQSGVPSRFGGSGAGTDFTLTISSLQPEDFATYSCQQSYSTPLTFGGGTKVEIK
16 | 0.796 | no binding (tested: FOI >=10 = positive) | no binding (tested: FOI >=10 = positive) | mAb 138 (antibody, V domains shown) VH: QVLLVQSGPEVKKPGASVKVSCKASGYTFTDYYLHWVRQAPGQGLDWMGWINPKSGGTRNAQKFQGRVTMTRDTSISTAYMDLTRLRSDDTAVYYCARVGGELLFDYWGQGTLVTVSS VL: DIVMTQSPLSLSVTPGEPASISCRSSQSLLHSDGYNYLDWFLQKPGQSPHLLIFLGSNRASGVPDRFSGSGSGTDFTLKISRVEAEDVGIYYCMQALQTPLTFGGGTKVEIK
17 | 0.743 | no binding (tested: FOI >=10 = positive) | no binding (tested: FOI >=10 = positive) | mAb 107 (antibody, V domains shown) VH: QVQLQESGPGLVKPSETLSLTCTVSGGSISSYCWSWIRQPPGKGLEWIGYIYNIGSTNFNPSLKSRVTISVDTSKNQFSLKLNSVTAADTAVYYCARGGLYSGNGGRFDPWGRGTLVTVSS VL: EIVLTQSPGTLSLSPGQTATLSCRASQGVRSNYLAWYQQKPGQAPRLLIYGASSRATGIPVRFSGSGSGTGFTLTMSRLEPEDFAVYYCQQYGSSPWTFGQGSKVEIK
18 | 0.772 | no binding (tested: FOI >=10 = positive) | no binding (tested: FOI >=10 = positive) | mAb 108 (antibody, V domains shown) VH: QVQLVESGGGVVQPGRSLRLSCAASGFTFSSYGMHWVRQAPGKGLEWVAVIWYDGSNKYYEDSVKGRFTISRDNSKNTLHLQMNSLRVEDTAVYYCARGLEFDYWGQGTLVTVSS VL: DIVMTQTPLSSPVTLGQPASISCRSSQSLVHSDGITYLNWLQQRPGQPPRLLIYKISNRFSGVPDRFSGSGSGTDFTLKISRVEAEDVGVYYCMQATQFPWTFGQGTKVEIK
